In US11491212 one finds KM, kcat (Catalytic activity of FIXa variants) and kcat/KM data, which are given here for 13 proteins.

In this data set the target is Factor X (FX), P00742.
Factor X (FX), P00742, sequence (P00742 whole entry, looked up): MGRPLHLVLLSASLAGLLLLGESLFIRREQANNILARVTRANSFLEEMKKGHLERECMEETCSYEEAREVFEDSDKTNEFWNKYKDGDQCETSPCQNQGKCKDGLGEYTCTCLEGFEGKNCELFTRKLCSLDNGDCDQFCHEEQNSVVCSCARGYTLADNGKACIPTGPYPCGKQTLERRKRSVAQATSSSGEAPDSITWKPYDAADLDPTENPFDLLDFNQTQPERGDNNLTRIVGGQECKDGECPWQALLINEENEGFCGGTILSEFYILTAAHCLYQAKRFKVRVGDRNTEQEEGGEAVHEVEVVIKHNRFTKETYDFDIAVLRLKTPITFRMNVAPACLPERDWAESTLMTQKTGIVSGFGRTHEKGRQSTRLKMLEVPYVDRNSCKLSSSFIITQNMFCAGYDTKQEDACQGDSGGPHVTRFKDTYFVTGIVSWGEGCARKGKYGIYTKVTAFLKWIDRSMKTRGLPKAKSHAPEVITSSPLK

B1: FIXa A103N/N105S/K247N/N249S/R318Y/R338E/R403E/E410N (protein)
chain 1: not shown
chain 2: not shown
Turning to B1, the KM worked out at 0.0397 µM, the kcat (Catalytic activity of FIXa variants) is 4.1 s⁻¹ and the catalytic efficiency (kcat/KM) amounted to 1e+08 M⁻¹ s⁻¹.

B2: FIXa K247N/N249S/R318Y/R338E/R403E/E410N (protein)
chain 1: not shown
chain 2: not shown
In the case of B2, the Michaelis-Menten constant (KM) was determined as 0.0392 µM and the kcat (Catalytic activity of FIXa variants) came to 5.8 s⁻¹.

B3: FIXa I251S/R318Y/R338E/E410N (protein)
chain 1: not shown
chain 2: not shown
For B3, the Michaelis constant (KM) worked out at 0.0162 µM, the kcat (Catalytic activity of FIXa variants) worked out at 6.2 s⁻¹ and the catalytic efficiency (kcat/KM) came to 3.8e+08 M⁻¹ s⁻¹.

B4: FIXa Y155F/K228N/R318Y/R338E/R403E/E410N (protein)
chain 1: not shown
chain 2: not shown
Take B4: the Michaelis constant (KM) was found to be 0.048 µM, the kcat (Catalytic activity of FIXa variants) is 9.7 s⁻¹ and the kcat/KM came to 2e+08 M⁻¹ s⁻¹.

B5: FIXa D104N/K106S/K247N/N249S/R318Y/R338E/R403E/E410N (protein)
chain 1: not shown
chain 2: not shown
In the case of B5, the Michaelis constant (KM) is 0.059 µM and the kcat (Catalytic activity of FIXa variants) was determined as 5.2 s⁻¹.

B6: FIXa Y259F/K265T/Y345T (protein)
chain 1: not shown
chain 2: not shown
With B6, the Michaelis-Menten constant (KM) is 0.0309 µM and the kcat (Catalytic activity of FIXa variants) is 1.7 s⁻¹.

B7: FIXa R318Y/R338E/R403E/E410S (protein)
chain 1: not shown
chain 2: not shown
For B7, the Michaelis constant (KM) was 0.0351 µM, the kcat (Catalytic activity of FIXa variants) turned out to be 5.8 s⁻¹ and the catalytic efficiency (kcat/KM) is 1.8e+08 M⁻¹ s⁻¹.

B8: FIXa Y155F/I251S/R318Y/R338E/R403E/E410N (protein)
chain 1: not shown
chain 2: not shown
Take B8: the KM is 0.0433 µM and the kcat (Catalytic activity of FIXa variants) stood at 7.2 s⁻¹.

B9: FIXa D85N/K228N/R318Y/R338E/R403E/E410N (protein)
chain 1: not shown
chain 2: not shown
For B9, the Michaelis constant (KM) worked out at 0.0393 µM and the kcat (Catalytic activity of FIXa variants) was found to be 6 s⁻¹.

B10: FIXa Y155F/K247N/N249S/R318Y/R338E/E410N (protein)
chain 1: not shown
chain 2: not shown
For B10, the KM was 0.0153 µM, the kcat (Catalytic activity of FIXa variants) was 4.3 s⁻¹ and the kcat/KM is 3e+08 M⁻¹ s⁻¹.

B11: FIXa I251S/R318Y/R338E/R403E/E410N (protein)
chain 1: not shown
chain 2: not shown
On to B11, for which the KM came out at 0.0334 µM and the kcat (Catalytic activity of FIXa variants) was 4.8 s⁻¹.

B12: FIXa Y155F/K247N/N249S/R318Y/R338E/R403E/E410N (protein)
chain 1: not shown
chain 2: not shown
B12: the KM is 0.0391 µM, the kcat (Catalytic activity of FIXa variants) stood at 6.5 s⁻¹ and the kcat/KM worked out at 1.8e+08 M⁻¹ s⁻¹.

B13: FIXa K247N/N249S/R318Y/R338E/E410N (protein)
chain 1: not shown
chain 2: not shown
With B13, the KM amounted to 0.0166 µM and the kcat (Catalytic activity of FIXa variants) was 3.8 s⁻¹.
